Legend:
Assay type in all cases: cell-based, human
CD71 cells = assay: Active caspase 3 staining of BM cells cultured with S100A9; conditions: BM cells cultured with S100A9, 48 h
Protocol: (§1) FIG. 21. Increased the expression of PD-1 and PD-L1 induced cell death. One and half million of BM cells from Healthy donor were placed per well in 24-well plate, cultured with IgG or S100A9. After 48 h, cells were collected and stained for cell surface with antibodies: anti-CD33-PE-Cy7, anti-CD34-Percp-Cy5.5, anti-CD14-BV510, anti-CD71-BV421, anti-CD38-BV711, and anti-CD235a-BUV395, then cells were fixed/permeabilized and stained with anti-active caspase 3-PE according to manufacturer's protocol (BD Biosciences). Near infrared live/dead dye was used for distinction of live or dead cells. Flow acquisitions were performed using LSR II cytometer and analysis was done using live cells with flowjo. (A) PD-L1 expression on CD14+/CD33+: cells positive for PD-L1 surface expression were calculated based on FMO gate setting. (B) and (C). PD-1 expression on progenitors by S100A9 or PT plasma, respectively: Positive PD-1 surface expression on CD14−/CD33−/CD71−/CD34+/CD38+ progenitors was determined using FMO gates. HD—healthy donor (n=6), MDS—myelodysplastic syndrome (n=10). Significance was determined using two-tailed unpaired t test with Welch's correction: *P<0.05, **P<0.01, ***P<0.001, error bars indicate mean±SEM.

C-Myc = C-Myc and p-stat3 induction in HD BM cells cultured with S100A9; conditions: HD BM cultured with S100A9 for 48 h
Protocol: FIG. 23. […] Right panel, HD BM cells 48 h treatment.

CD33+CD14+ cells = assay: Culture of BM cells with S100A9, PD-L1 surface expression by flow cytometry; conditions: BM cells cultured with S100A9, 48 h
Protocol: FIG. 5. Culture of BM cells with rhS100A9 can induce the expression of PDL1 on CD33+CD14+.
as §1, with “FIGS. 20A-20C. […]” for “FIG. 21. Increased the expression of PD-1 and PD-L1 induced cell death.”, “stained” for “stained for cell surface”, “anti-CD38-BV711, anti-CD235a-BUV395, anti-PD-1-FITC” for “anti-CD38-BV711,”, “anti-PD-L1-APC.” for “anti-CD235a-BUV395, then cells were fixed/permeabilized and stained with anti-active caspase 3-PE according to manufacturer's protocol (BD Biosciences).”, “(C)” for “(C).”, “respectively.” for “respectively:”

[1] = system: CD33+, CD34+, and CD71+ cells; assay: Culture of BM cells with S100A9, PD-1 surface expression by flow cytometry; conditions: for PD-1 expression on CD34+ cells / PD-1 expression on CD71+ cells: BM cells cultured with S100A9, 48 h
Protocol: FIGS. 6A and 6B. Culture of BM cells with rhS100A9 can induce the expression of PD1 on CD33+.
FIG. 7. Culture of BM cells with rhS100A9 can induce the expression of PD1 on CD34+.
FIG. 8. Culture of BM cells with rhS100A9 can induce the expression of PD1 on CD71+.
as §1, with “FIGS. 20A-20C. […]” for “FIG. 21. Increased the expression of PD-1 and PD-L1 induced cell death.”, “stained” for “stained for cell surface”, “anti-CD38-BV711, anti-CD235a-BUV395, anti-PD-1-FITC” for “anti-CD38-BV711,”, “anti-PD-L1-APC.” for “anti-CD235a-BUV395, then cells were fixed/permeabilized and stained with anti-active caspase 3-PE according to manufacturer's protocol (BD Biosciences).”, “(C)” for “(C).”, “respectively.” for “respectively:”

[2] = listed as recombinant human S100A9

B1: S100A9: recombinant human S100A9 protein used to treat BM cells (protein, UniProt P06702 1-114, looked up)
Protein S100-A9: MTCKMSQLERNIETIINTFHQYSVKLGHPDTLNQGEFKELVRKDLQNFLKKENKNEKVIEHIMEDLDTNADKQLSFEEFIMLMARLTWASHEKMHEGDEGPGHHHKPGLGEGTP
active caspase 3 in CD71 cells (CD71 cells): increase active caspase 3
C-Myc expression (C-Myc): induced C-Myc expression
p-stat3 (C-Myc): induced p-stat3
PD-L1 expression on CD33+CD14+ cells (CD33+CD14+ cells): directly induced the expression of PD-L1
PD-L1 expression on CD33+CD14+ cells (CD33+CD14+ cells; [2]): induces PDL1 expression
PD-1 expression on CD34+ cells [1]: directly induced
PD-1 expression on CD71+ cells [1]: directly induced
PD-1 expression on CD34+ cells [1, 2]: induces PD1
PD-1 expression on CD71+ cells [1, 2]: induces PD1
PD-1 expression on CD33+ cells ([1]; BM cells cultured with rhS100A9): induces PD1

— patent US11287428B2, “PD1 and PDL-1 expression during progression from myelodysplastic syndrome to acute myelogenous leukemia” (H. Lee Moffitt Cancer Center and Research Institute, Inc., priority 2016, dated 2022)
